Like-named read-outs stand apart in the source and are kept apart here.
T1: full length cynomolgus APLNR (cynomolgus monkey (Macaca fascicularis), UniProt O97666 1-380 (rhesus entry))
T1 construct: Stably expressed on HEK293/CRE-luc/MfAPLNR cells; also called MfAPLNR; mfAPLNR
T1 sequence: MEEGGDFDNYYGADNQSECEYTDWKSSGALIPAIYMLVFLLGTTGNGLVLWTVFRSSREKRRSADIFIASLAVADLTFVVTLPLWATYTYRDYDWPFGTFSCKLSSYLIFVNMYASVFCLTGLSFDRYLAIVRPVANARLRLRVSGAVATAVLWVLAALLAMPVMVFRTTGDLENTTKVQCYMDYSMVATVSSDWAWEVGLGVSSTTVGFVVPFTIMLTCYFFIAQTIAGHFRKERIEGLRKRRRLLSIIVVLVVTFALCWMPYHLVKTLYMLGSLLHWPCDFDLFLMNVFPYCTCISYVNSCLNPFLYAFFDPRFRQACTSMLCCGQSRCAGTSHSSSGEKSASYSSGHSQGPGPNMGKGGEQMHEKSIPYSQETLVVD

T2: full-length human APLNR (human, UniProt P35414 1-380)
T2 construct: Stably expressed on HEK293/CRE-luc/hAPLNR cells (FACS, CRE-luc assays) and on CHO/hAPLNR cells (pERK assays); also called hAPLNR; apelin receptor
T2 sequence: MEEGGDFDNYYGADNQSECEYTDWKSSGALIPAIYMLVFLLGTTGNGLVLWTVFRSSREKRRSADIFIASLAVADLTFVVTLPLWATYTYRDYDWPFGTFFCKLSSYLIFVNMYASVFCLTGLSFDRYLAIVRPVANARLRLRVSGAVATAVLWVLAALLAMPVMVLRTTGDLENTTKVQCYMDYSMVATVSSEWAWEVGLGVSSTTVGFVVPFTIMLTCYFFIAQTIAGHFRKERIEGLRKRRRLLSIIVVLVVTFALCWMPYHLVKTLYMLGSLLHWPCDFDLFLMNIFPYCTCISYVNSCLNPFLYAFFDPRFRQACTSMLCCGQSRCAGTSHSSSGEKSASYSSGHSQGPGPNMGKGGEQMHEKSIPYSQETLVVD

B1: H4H9103P (antibody, V domains shown)
VH: EVQLVESGGGLVQPGRSLRLSCAASGFTFDDYAMHWVRQVPGKGLEWVSGITWNSGDIGYADSVKGRFTISRDNAKNSLYLQMNSLRAEDTALYYCTKDKDSSGYYGIDVWGQGTTVTVSS
VL: DIQMTQSPSSVSASVGDRVTITCRASQGIRTWLAWYQQKPGKAPKLLIYAASSLQSGVPSRFSGSESGTDFTLTISSLQPEDFATYYCQQANSFPFTFGPGTKVDIK
notes: Fully human, human IgG4 Fc
B2: H4H9209N (antibody, V domains shown)
VH: EVQLLESGGGLVQPGGSLRLSCAASGFTFSNYAMNWVRQAPGRGLEWVSAIHYDGSNSYYADSVKGRFTISRDNSKNTLYLQMNSLRAEDTAIYYCAILSRVYWGQGTLVTVSS
VL: DIQMTQSPSSLSASVGDRVTITCRASQGINNYLAWFQQKPGKAPKSLIYATSSLQSGVPSKFSGSGSGTDFTLTISSLQPEDFATYYCQQYNSYPLTFGGGTKVEIK
B3: H2aM9209N (antibody, V domains shown)
VH: EVQLLESGGGLVQPGGSLRLSCAASGFTFSNYAMNWVRQAPGRGLEWVSAIHYDGSNSYYADSVKGRFTISRDNSKNTLYLQMNSLRAEDTAIYYCAILSRVYWGQGTLVTVSS
VL: DIQMTQSPSSLSASVGDRVTITCRASQGINNYLAWFQQKPGKAPKSLIYATSSLQSGVPSKFSGSGSGTDFTLTISSLQPEDFATYYCQQYNSYPLTFGGGTKVEIK
B4: H4H9104P (antibody, V domains shown)
VH: QVQLVESGGDLVKPGGSLRLSCAASGFTFSDYYMNWIRQAPGKGLEWVSYISSSGSTIHYADSVKGRFTISRDNAKNLVYLRMNSLRAEDTAVYFCAREREVHDYSDPYFFFYGMDVWGQGTTVTVSS
VL: DIQMTQSPSSVSASVGDRVTITCRASQDVSSWLAWYQHKPGKAPKLLIFAASSLQSGVPSRFSGSGSGTDFTLTISSLQSEDFATYYCQQANSFPLTFGGGTKVEIK
notes: Fully human, human IgG4 Fc
B5: H2aM9222N (antibody, V domains shown)
VH: EVQLVESGGGLVQPGGSLRLSCAASGFTFSNYWMSWVRQAPGKGLEWVANIKQDGSERYYVGSVKGRFTISRGDAENSLYLQMNSLRAEDTAVYYCARDRFGYSAYDKGVRYYYGMDVWGQGTTVTVSS
VL: DIQMTQSPSSLSASVGDRVTITCRASQGIRNDLGWYQQKPGKAPKRLIYAASSLQSGVPSRFSGSGSGTEFTLTISSLQPEDFATYYCLQHNSYPRTFGQGTKVEIK
notes: Human variable domains, mouse IgG2a Fc
B6: H4H9113P (antibody, V domains shown)
VH: QVQLVQSGAEVKKPGASVEVSCKASGYTFTDYYIHWIRQAPGQGLEWMGWINPDSGRTNYAQKFQVRVTMTRDTSITTAYMELNRLKSDDTAVYYCARGPLRGYSGYDFFDYWGQGTLVTVSS
VL: DIQMTQSPSSLSASVGDRVTITCRASQGIRNDLGWYQQKPGKAPNRLIYAASSLQSGVPSRFSGSGSGTEFTLTISSLHPEDFATYSCLQHNSFPLTFGGGTKVEIK
notes: Fully human, human IgG4 Fc
B7: H2aM9230N (antibody, V domains shown)
VH: EVQLVESGGGLVQPGGSLRLSCAASGFTFSSFWMSWVRQVPGKGLQWVANIKQDGSEKYYVDSVKGRFTISRDNAKNSLYLQMNSLRAEDTAVYYCARDRFGYSVYDKGVRYYYGMDVWGQGTTVTVSS
VL: DIQMTQSPSSLSVSVGDRVTITCRASQGIRNDLGWYQQKPGKAPKRLIYAASSLQSGVPSRFSGSGSGTEFTLTISGLQSEDFATYYCLQHKSYPRTFGQGTKVEIK
notes: as for B5
B8: H2aM9227N (antibody, V domains shown)
VH: EVQLVESGGGLVQPGGSLRLSCAASGFTFSSFWMSWVRQVPGKGLEWVANIKQDGSEKYYVDSVKGRFTISRDNAKNSLYLQMNSLRAEDTAVYYCARDRFGYSFYDKGVRYYYGMDVWGQGTTVTVSS
VL: DIQMTQSPSSLSVSVGDRVTITCRASQGIRNDLGWYQQKPGKAPKRLIYATSSLQSGVPSRFSGSGSGTEFTLTISGLQPEDFATYYCLQHNSYPRTFGQGTKVEIK
notes: as for B5
B9: H2aM9228N (antibody, V domains shown)
VH: EVQLVESGGGLVQPGGSLRLSCAASGFTFSNYWMSWVRLAPGKGLEWVANIKQDGSERYYVGSVKGRFTISRGDAKNSLYLQMNSLRAEDTAVYYCARDRFGYSAFDKGVRYYYGMDVWGQGTTVTVSS
VL: DIQMTQSPSSLSASVGDRVTITCRASQGIRNDLGWYQQKPGKAPKRLIYAASSLQSGVPSRFSGSGSGTEFTLTISSLQPEDFATYYCLQHNSYPRTFGQGTKVEIK
notes: as for B5
B10: H4H9112P (antibody, V domains shown)
VH: QVQLVQSGAEVKKPGASVEVSCKASGYTFTDYYIHWIRQAPGQGLEWMGWINPDSGRTNYAQKFQVRVTMTRDTSITTAYMELNRLKSDDTAVYYCARGPLRGYSGYDFFDYWGQGTLVTVSS
VL: DIQMTQSPSSLSAFVGDRVTITCRASQSISSYLNWYQQKPGKAPKLLIYTASTLQRGVPSRFRGSGSGTDFTLTISSLQPEDFATYYCHQTYSIPITFGQGTRLEIK
notes: Fully human, human IgG4 Fc
B11: H2aM9232N (antibody, V domains shown)
VH: QVKLVESGGGVVQPGRSLRLSCAASGFTFSNYVIHWVRQAPGKGLEWVAVIWYDGSNKYYADSVKGRFTISRDNSKNTLYLQMNSLRAEDTAVYYCARDRVVRGVDYYYYYGLDVWGQGTSVTVSS
VL: EIVMTQSPATLSVSPGERATLSCRASQSVRSNLAWYQQKPGQAPRLLIYGASSRATGIPARFSGTGSGTEFTLTISSLQSDDFAVYYCQQYNKWPRTFGQGTKVEIK
notes: as for B5
B12: H1M9207N (antibody, V domains shown)
VH: EVQLVESGGGLAQPGGSLRLSCAASGFTFSNYWMSWVRQAPGKGLEWVANIKQDGSEKYYLESVKGRFTISRDNAKNLLYLQMNSLRAEDTAVFYCARPGLLRFLEPGRRYYSGMNVWGQGTTVTVSS
VL: DIQLTQSPSFLSASVGDRVTITCWASQGIRSYLAWYQQKPGKAPKLLIYAASTLQSGVPSRFSGSGSGTEFTLTISSLQPEDFATYYCQQFNSYPWTFGQGTKVEIK
notes: Human variable domains, mouse IgG1 Fc (H1M prefix)
B13: H4H9101P (antibody, V domains shown)
VH: QVQLVQSGAEVKKPGASVEVSCKASGYTFTDYYIHWIRQAPGQGLEWMGWINPDSGRTNYAQKFQVRVTMTRDTSITTAYMELNRLKSDDTAVYYCARGPLRGYSGYDFFDYWGQGTLVTVSS
VL: DIQLTQSPSFLSASVGDRVTITCWASQGISSYLAWYQQKPGKAPKLLIYAASTLQSGVPSRFSGSGSGTEFTLTISSLQPEDFASYFCQQLNSNPRTFGQGTKVEIK
notes: Fully human, human IgG4 Fc

Assays:
[1] = molecular target: T1, full length cynomolgus APLNR; assay: FACS, 10 µg/mL antibody, HEK293/CRE-luc/MfAPLNR cells
full-length human APLNR [2] = molecular target: T2, full-length human APLNR; assay: FACS, 10 µg/mL antibody, HEK293/CRE-luc/hAPLNR cells
full-length human APLNR [3] = molecular target: T2, full-length human APLNR; assay: cell-based or functional assay
full-length human APLNR [4] = molecular target: T2, full-length human APLNR; assay: cell-based or functional assay; remark: listed apart in the source
full-length human APLNR [5] = molecular target: T2, full-length human APLNR; assay: cell-based or functional assay; remark: listed apart in the source
full-length human APLNR [6] = molecular target: T2, full-length human APLNR; assay: cell-based or functional assay; remark: listed apart in the source
full-length human APLNR [7] = molecular target: T2, full-length human APLNR; assay: FACS, 10 µg/mL antibody, HEK293/CRE-luc/hAPLNR cells; remark: listed apart in the source
[8] = molecular target: T1, full length cynomolgus APLNR; assay: FACS, 10 µg/mL antibody, HEK293/CRE-luc/MfAPLNR cells; remark: listed apart in the source

Binder	Binding Ratio of Geom. Mean to Unstained Cells [1] [fold]	Binding Ratio of Geom. Mean to Unstained Cells (full-length human APLNR [2]) [fold]	% Inhibition at 100 nM antibody, in the presence of 100 ρM Apelin (at 5 µM Forskolin) (full-length human APLNR [4]) [%]	% Activation at 500 nM mAb (at 7.5 uM Forskolin) (full-length human APLNR [6]) [%]	Binding Ratio of Geom. Mean to Unstained Cells (full-length human APLNR [7]) [fold]	IC50 [M], in the presence of 100 ρM Apelin (at 5 µM Forskolin) (full-length human APLNR [4]) [M]	Binding Ratio of Geom. Mean to Unstained Cells [8] [fold]	also measured
B1	2	3						
B2								% Inhibition at 100 nM mAb, in the presence of 100 ρM Apelin (at 10 µM Forskolin) (full-length human APLNR [3]): 16%; IC50 [M], in the presence of 100 ρM Apelin (at 10 µM Forskolin) (full-length human APLNR [3]): 5.9e-09 M
B3			7					
B4	1	2						
B5			11	21				Activating EC50 (M), pERK/total ERK assay, CHO/hAPLNR cells (full-length human APLNR [5]): 4.79e-08 M
B6	1	2						
B7			49	52	2940	2.4e-09	658	
B8			33	45	4100	4.3e-09	1440	
B9			26	49	1490	> 1e-07	108	Activating EC50 (M), pERK/total ERK assay, CHO/hAPLNR cells (full-length human APLNR [5]): 6.41e-08 M
B10	2	2						
B11			98		2860	4.2e-09	678	Inhibiting IC50 (M), pERK/total ERK assay, CHO/hAPLNR cells (full-length human APLNR [5]): 2.09e-07 M
B12			83		2180	3e-09	1310	
B13	2	3						
